Test results published in the supplement of paper PMC7125110.
± gives the standard error. For part of these data: This sample holds only a part of the variants without activity.

B1: glmS ribozyme (parent)
chain: AUAAAAGCGCCAGAACUACAGAAAUGUAGUUGACGAGGAGGAGGUUUAUCGAAUUUUCGGCGGAUGCCUCCAAA

Key:
Details in all cases: with glucosamine-6-phosphate
glucosamine-6-phosphate [1] = variants of: B1; assay: kcat; higher = faster cleavage; RNA array
In short: (§1)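 Sequenced MiSeq chips were the platform: E. coli RNA polymerase transcribed barcoded ribozyme variants on them in situ, and a hybridised Cy3 probe tracked these at 37 °C. After glucosamine-6-phosphate (40 μM to 10 mM) in HEPES/KCl/Mg(OAc)2 buffer was flowed in, tiles were imaged over ~14 h. Signals normalised to baseline and to non-cleaving reference variants were reduced to per-tile medians and fit to one- or two-exponential decays to obtain kobs. kcat and KM were derived through weighted Michaelis–Menten fits across concentrations.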

glucosamine-6-phosphate [2] = variants of: B1; assay: self-cleavage kobs at 160 uM GlcN6P; higher = faster cleavage; RNA array
In short: as §1

glucosamine-6-phosphate [3] = variants of: B1; assay: self-cleavage kobs at 640 uM GlcN6P; higher = faster cleavage; RNA array
In short: as §1

glucosamine-6-phosphate [4] = variants of: B1; assay: self-cleavage kobs at 10000 uM GlcN6P; higher = faster cleavage; RNA array
In short: as §1

glucosamine-6-phosphate [5] = variants of: B1; assay: self-cleavage kobs at 2500 uM GlcN6P; higher = faster cleavage; RNA array
In short: as §1

glucosamine-6-phosphate [6] = variants of: B1; assay: KM; higher = weaker cofactor use; RNA array
In short: as §1

glucosamine-6-phosphate [7] = variants of: B1; assay: self-cleavage kobs at 40 uM GlcN6P; higher = faster cleavage; RNA array
In short: as §1

Variant	kcat (glucosamine-6-phosphate [1]) [s⁻¹]	self-cleavage kobs at 160 uM GlcN6P (glucosamine-6-phosphate [2]) [s⁻¹]	self-cleavage kobs at 640 uM GlcN6P (glucosamine-6-phosphate [3]) [s⁻¹]	self-cleavage kobs at 10000 uM GlcN6P (glucosamine-6-phosphate [4]) [s⁻¹]	self-cleavage kobs at 2500 uM GlcN6P (glucosamine-6-phosphate [5]) [s⁻¹]	KM (glucosamine-6-phosphate [6]) [µM]	self-cleavage kobs at 40 uM GlcN6P (glucosamine-6-phosphate [7]) [s⁻¹]
A15U A53C	0.000734 ± 0.00026	0.00014 ± 4.7e-05	0.000643 ± 0.00016	0.000636 ± 0.00012	–	–	–
C16U C67G C68U	6.15e-05 ± 1.2e-05	–	7.27e-05 ± 2.2e-05	5.02e-05 ± 1.9e-05	6.31e-05 ± 2.8e-05	–	–
C16A U54A	0.0017 ± 0.00051	0.000136 ± 2.6e-05	0.000351 ± 4.9e-05	0.00169 ± 0.00028	0.00076 ± 0.00015	2150 ± 940	5.13e-05 ± 1.3e-05
A15G G32A C70G	9.72e-05 ± 1.2e-05	0.000115 ± 3.5e-05	0.000107 ± 2.6e-05	9.41e-05 ± 1.1e-05	7.81e-05 ± 3e-05	–	–
A15U G66C	0.000125 ± 1.5e-05	–	–	6.96e-05 ± 1.2e-05	3.02e-05 ± 1.1e-05	7900 ± 1900	–
C16G G66A	0.00183 ± 0.0004	0.000199 ± 5.6e-05	0.000593 ± 8.9e-05	0.00218 ± 0.00038	0.00111 ± 0.00019	1140 ± 380	7.41e-05 ± 1.1e-05
C16A A39C U65G	5.91e-05 ± 2.8e-05	–	–	–	8.69e-05 ± 3e-05	–	–
A15U U49A C67A	2.42e-05 ± 8.1e-06	–	–	–	–	–	–
C16A G63U	< 1e-05	< 1e-05	–	< 1e-05	–	–	< 1e-05
C16G U56G	0.00338 ± 0.00054	0.000387 ± 9.6e-05	0.000953 ± 0.00023	0.00348 ± 0.00064	0.00213 ± 0.00038	1220 ± 320	0.000129 ± 2.5e-05
C16G U54C	0.00528 ± 0.0015	0.000157 ± 5.6e-05	0.000745 ± 0.00019	0.00397 ± 0.00058	0.00247 ± 0.00064	3350 ± 1400	9.28e-05 ± 1.6e-05
A15U G29U	0.00358 ± 0.0016	0.000217 ± 7.1e-05	–	0.00431 ± 0.00044	0.0014 ± 0.00028	–	0.000116 ± 1.1e-05
C16A U45A	0.00475 ± 0.0015	0.000133 ± 3.5e-05	0.000781 ± 0.00013	0.00331 ± 0.00052	0.00222 ± 0.00037	3620 ± 1600	7.33e-05 ± 1.3e-05
A15G U57C	0.000143 ± 1.4e-05	–	2.79e-05 ± 9.6e-06	0.000113 ± 1.7e-05	8.09e-05 ± 1.2e-05	2200 ± 520	–
A15G U57G	9.24e-05 ± 1.1e-05	–	–	7.35e-05 ± 1.2e-05	5.11e-05 ± 2.2e-05	2500 ± 1200	–
C16G C61A	1.02e-05 ± 1.1e-06	–	–	–	–	–	–
C16G C61U	< 1e-05	< 1e-05	–	–	–	–	< 1e-05

Variant	kcat (glucosamine-6-phosphate [1]) [s⁻¹]	self-cleavage kobs at 160 uM GlcN6P (glucosamine-6-phosphate [2]) [s⁻¹]	self-cleavage kobs at 640 uM GlcN6P (glucosamine-6-phosphate [3]) [s⁻¹]	self-cleavage kobs at 10000 uM GlcN6P (glucosamine-6-phosphate [4]) [s⁻¹]	self-cleavage kobs at 2500 uM GlcN6P (glucosamine-6-phosphate [5]) [s⁻¹]	KM (glucosamine-6-phosphate [6]) [µM]	self-cleavage kobs at 40 uM GlcN6P (glucosamine-6-phosphate [7]) [s⁻¹]
C16A A39G	0.00326 ± 0.00026	0.000212 ± 5.3e-05	0.000731 ± 0.00012	0.00273 ± 0.00053	0.00177 ± 0.00034	2130 ± 240	6.75e-05 ± 1.4e-05
C16A A39C	0.000305 ± 1.9e-05	–	3.69e-05 ± 1.3e-05	0.00021 ± 2.9e-05	0.000114 ± 1.5e-05	4340 ± 490	–
C16A A39U	0.00123 ± 0.00017	6.24e-05 ± 9.4e-06	0.000287 ± 2.3e-05	0.000937 ± 9e-05	0.000654 ± 5.7e-05	2410 ± 520	–
C16A C50U	< 1e-05	–	–	–	–	–	< 1e-05
A15G C68G	0.000113 ± 3e-06	3.48e-05 ± 1.2e-05	7.26e-05 ± 1.2e-05	0.000113 ± 1.7e-05	9.45e-05 ± 1.6e-05	367 ± 35	–
C16G U69A	4.79e-05 ± 1e-05	–	6.57e-05 ± 1.6e-05	3.59e-05 ± 1.2e-05	5.05e-05 ± 1.2e-05	–	–
C16G A39C U54G	0.00043 ± 5.6e-05	–	0.000133 ± 2.1e-05	0.000394 ± 6e-05	0.000227 ± 5.8e-05	1500 ± 410	–
A15U G40U	0.000328 ± 7.5e-05	2.65e-05 ± 1.3e-05	0.000117 ± 2.2e-05	0.000273 ± 2.8e-05	0.000447 ± 6.9e-05	–	–
C16U A39G	0.0255 ± 0.0088	0.00365 ± 0.00075	0.00828 ± 0.0019	0.0356 ± 0.0085	0.0177 ± 0.0063	866 ± 400	0.00133 ± 0.00019
C16G G59A	1.51e-05 ± 3.3e-06	–	–	–	–	–	–
C16U A36C	< 1e-05	–	< 1e-05	–	< 1e-05	28.4 ± 13	< 1e-05
A15U A52C	< 1e-05	< 1e-05	< 1e-05	–	–	537 ± 110	< 1e-05
A15U A52G	0.00041 ± 2.6e-05	–	8.94e-05 ± 1.6e-05	0.000331 ± 4.6e-05	0.000222 ± 3.6e-05	2270 ± 280	–
A15U A48C	2.45e-05 ± 3.9e-06	–	–	–	–	–	–
C16A A48C	< 1e-05	–	–	–	–	–	< 1e-05
A15U U31C	0.00128 ± 0.0001	7.32e-05 ± 7.2e-06	0.000233 ± 1.9e-05	0.000981 ± 7.1e-05	0.000703 ± 6.9e-05	2710 ± 340	1.67e-05 ± 5.8e-06
